# B1: Guanyl-specific ribonuclease Sa, P05798 (parent)
# chain: DVSGTVCLSALPPEATDTLNLIASDGPFPYSQDGVVFQNRESVLPTQSYGYYHEYTVITPGARTRGTRRIITGEATQEDYYTGDHYATFSLIDQTC
# Variants of: B1
# Settings: Kitasatospora aureofaciens, pH 7, CD, MOPS 30 mM, structure 1RGG, whole UniProt chain shown
Variant,"ddG of mutation (higher = less stable) (60 °C, Thermal) [kcal/mol]","heat capacity change of unfolding (60 °C, Thermal) [kcal/mol/K]",Tm (Thermal) [°C],"change of melting temperature, mutant - wild type (higher = more stable) (Thermal) [°C]",heat capacity change of unfolding (Thermal) [kcal/mol/K],unfolding enthalpy (van 't Hoff) (Thermal) [kcal/mol],"ddG of mutation (higher = less stable) (25 °C, GdnHCl) [kcal/mol]","denaturant m value (25 °C, GdnHCl) [kcal/mol/M]","denaturant midpoint (higher = more stable) (25 °C, GdnHCl) [M]","unfolding free energy (25 °C, GdnHCl) [kcal/mol]","ddG of mutation (higher = less stable) (25 °C, Urea) [kcal/mol]","denaturant m value (25 °C, Urea) [kcal/mol/M]","denaturant midpoint (higher = more stable) (25 °C, Urea) [M]","unfolding free energy (25 °C, Urea) [kcal/mol]"
D25K E74K S31P S42G S48P T76P Q77G D79F I70D,9.5,1.08,41.5,-35.6,1.08,78,,,,,,,,
D25K E74K,-0.8,,51.5,2.2,,92,0.2,2.61,2.7,7.1,-0.8,1.02,6.51,6.6
D25K E74K S31P S42G S48P T76P Q77G,-5.3,1.68,66.6,17.3,1.68,105,-3.9,2.52,4.44,11.2,,,,
D25K E74K S31P S42G S48P T76P Q77G D79F Y80A,4.8,1.29,58,-19.2,1.29,87,-0.1,2.69,2.74,7.4,,,,
D25K E74K S31P S42G S48P T76P Q77G I92D,9.6,1.41,34,-32.6,1.41,73,5.1,2.67,0.83,2.2,,,,
D25K E74K S31P S42G S48P T76P Q77G D79F,-7.7,1.07,,,,,-6.3,2.51,5.4,13.6,,,,
D25K E74K S31P S42G S48P T76P Q77G D79A,-2.2,1.15,75.3,8.7,1.15,102,-4.9,2.4,5.05,12.1,,,,
D25K E74K S31P S42G S48P T76P Q77G D79F I92D,7.1,1.41,50.2,-26.9,1.41,84,2.2,2.73,2.01,5.5,,,,
D25K E74K S31P S42G S48P T76P Q77G D79F I92A,3.2,1.33,63.9,-13.3,1.33,102,-1.9,2.78,3.22,9.2,,,,
